Test: soluble on expression in E. coli; label from the status in PepcDB or PDB records

Row | Sequence | soluble on expression in E. coli
1 | GPGSMSASSAPDRVYVGKRLHFTNGSRQLVRCGTRNIAVVCNRNELYAIDNACYHHGGPLLLGDIEEMGGHPCIVCPWHSYKIALDTGEGLYLGVELSPAGGTPKQVVRSKGCKQRVHKVEVDEADDVYVLVDLSGPTLESDTYASMELANRERPMSLPVDGGGRGLRVPGIHSHAGVELRSGQVFQHMGSLAEAGGNTGTRGANSLDHAQKTRPHEITSRGSSCSSPTTRLMVSCVAITDVCPQVRQFDFVHHAGPLLRHAELGEYVELELPIKERRTANGGGGQAVDLLSSSSAPAATAGEPMRRRWTICDMNHNSTLFSIIVKAAGTDTQASGSAWLHEHSLSVPLPITRVGGTFTFARHRDTIRRVGGRVLWLTAGVGMTPAYAFLNASLGNSLYVASAEPLHVVHLHSNRTLETVPKLEQFGRWQREFPRSALDTAEKTSGGSGARKPGKTYVMELFIALSTDAGQGQRTSPGSSPPDSCPVATITHRSRLQPANVSAAVQKYFGADMQLAYVCGPQKFVKDCTEALVSTGVPESHILTDDP | not soluble
2 | MATLDGINVKDIVKVERTSVHSHITGLGLNDRLEAEYVSGGMVGQVAARQAAGLIVKMIQEGKIAGRALLVTGEPGAGKTAIAIAISKELGEDTPFVSIVASEIYSNEINKTEALTQAFRRALGIQIKEETEVLEGEVISLEVDRSANGMGPKVGKLTMRTTDMETIYDLGSKMVDACLKEKVMPGDVIQVDKASGRVTRLGRSFNRSHDYDAMGPKVKLVQCPDGEIQKRRETVHTVCLHDIDVINSRTQGYVALFSGDTGEIKAEVRDQINKKVLEWREEGKAKFVPGVLFIDEAHMLDIECFSFLNRAIEGELSPLIIMATNRLIEKVRGTDVESAHGIPSDFLDRMLIINAIPYTKEDTAKILSIRCDEEGVKLQPTALDLLVKLQEATSLRYCIHLIAASEVIRIRSKAEIVTTDHIGSAYRLFFDTKRSEKILTEESAGFLQ | not soluble
3 | MLTEGISIQSYDGHTFGALVGSPAKAPAPVIVIAQDIFGVNAFMRETVSWLVDQGYAAVCPDLYARQAPGTALDPQDERQREQAYKLWQAFDMEAGVGDLEAAIRYARHQPYSNGKVGLVGYSLGGALAFLVASKGYVDRAVGYYGVGLEKQLNKVPEVKHPALFHMGGQDHFVPAPSRQLITEGFGANPLLQVHWYEEAGHSFARTGSSGYVASAAALANERTLDFLVPLQSRKP | soluble
4 | MGSDKIHHHHHHMTKETATISQLQQDIINNSQKGFPLTSQPYKTIAEQLADVNIVTNELEVFQAIDDLNSQEVLSRVGPVFDHKKAGASTLAALAVPAKDLDKIAGIVNQFDQVNHNYGREHVYNLWFVVTASDMVALNSTIVNIELLTGLPVLVLPMEASYHIDLAFSINVTGIESPTSNQENRPVTFDNNDTTSLTDIEKTALRRAIEKGLPTHLFPYQAIAQQLALSEQQVLMQISLWQEEGLIRRFGLVIKHRKLGYDANAMVVWNIPNENMDAIALKLAKCAPVSLCYQRPRRLPDWPYNLFCMIHGTDRSLVLQQISQITEQLGLESIEKDVLFSFKAYKQHGARYFKTNSKKAKTNNISAGKTENNNDMKKQGQAHG | not soluble
5 | MEGVKKIKNPSTVKDELLELMFRIYRSTNGKYPALEWVKRKPNPNDFNGFREVYEPFLKFRLSQEFDELYTYQKDNRIIGTIALVYKRIKEKGIWWVPEELMNEKVGLIEFFVVDPEFQGKGIGSTLLEFAVKRLRSLGKDPYVVTFPNLEAYSYYYMKKGFREIMRYKEFVILKFNHKKFQLEHHHHHH | soluble
6 | MGSDKIHHHHHHDYEAVNTNPYGVSDGELGPLKYGARFMNMQQRVIPIGSPSLTTGPGNDLQNTDLISSGNYIGYFGNNNNWGFNNEANWNFTDSRMNYAYQNFYSQIFLPWNEIYEIAKDSDSPSEQAILEIANIVRNIAWLRATDVFGPIAYNSAGDGSIAPKFDSQEVVYRSMLADLSKSVELLNTISYSVMAQYDLIYNGNVQNWVKLANSLMLRIAVRVHFIDETLAKEYITKALDPKNGGVIEDISSEAKIKSSDKMPLLNSMLASVNEYNETRMGATIWGYLDGYKDPRLSAYFTEGTYGSGSWAQTGYFPVAPTNSKSKSETSYSAKFASRPKVDSNSPLYWFRASETYFLKAEAALYNLIGGDPKTFYEQGINISFQEQGVSGVATYLSGTGKPTGLTGSNYKYGTYNHDLSIGNTSPKWDDYTGNLSKQEEQLQKIITQKYLALYPNAVEAWTEYRRTGFPYLMKPMDEAAPGRIGASIEDCRVPERFRFAPTAYNSNPNMAEIPTLLGGGDIGATKLWWVRSNRPKQPNQ | not soluble
7 | MGSWGMEALESDEGLDLINWVEEQLQDDSTFDAESIVQRLSQHEDLFGFQGDEEFLYDNNVIGLVELIIQKAAGEKITSSKQIDQLDSYRLTSIFSKKLQGRLQTIDDTHEWIMLFEGRAREKAKAYLIEITDKLRVVKTTA | soluble
8 | MCDTLILRHQGQTWFAKNSDREPAEPQRLLRLPAVRNDPEARLRTTYLDIPQTAQRHALVISQPSWIWGAEMGVNEHGVAIGNEAVFTKLTRQRGTALLGMDLLRLGLERGASAREALEVITGLLQRYGQGGPAGYRDKRIRYDNSFLIADPGEAWVLETAGNLWAAKKVERWAISNALTLGHEFDLCSRDLEDQARRQGCWDGRGDFHFARVFDTRLLPWVGGAHRRCRINQRFLDSLPGEPDWHALFAALRHHGPRGDHFRRHNNRQVCMHAGSFWRPSQTTASLVARLRDDGPLLAATGTSAPCLGLFQPLSFDPASGAAVLSQPREAVQESPWWRFEAVHRRALTDRAFRRLLRSGRDWLERELFADLEQPDWPRLAEDAAAWHACWHDQVAMQPLAQQRWWRSHAALAAALEHHHHHH | not soluble
9 | AHHHHHHGSSMELFEVHEGKAKVLVPKAKTIYDSPVFYNPRMAPNRDVVVLLLNVLKPKIVLDALSATGIRGIRFALETPAEEIWMNDINELAYELMKKNVLLNFKGTLKENAKRAIFEGEKTIVINNDDANRLMAEKHRYFHFIDLDPFGSPMEFLDTALRSVKRKGILGVTATDGAPLCGAHPKACLRKYLAVPLRGELCHEVGTRILVGVIARYAAKYDLGMEVLLAYYKDHYFRAFVKLKDGAKKGDETLENLGYVYFDEKTGRFEVEKSFLSTRPNAYGPLWLGPLKNEKVVGEMLELLVSGFEVANYREVLKLLHMLHEELDIPLFYDTHALGKRLKIEPKKLGEIIKELKSMGYEATRTHFSPTGIKTNAPYEVFVEVMRKN | soluble
10 | SMMDLFETGSYFFYLDGENVTLQPLEVAEGSPLYPGSDGTLSPCQDQMPPEAGSDSSGEEHVLAPPGLQPPHCPGQCLIWACKTCKRKSAPTDRRKAATLRERRRLKKINEAFEALKRRTVANPNQRLPKVEILRSAISYIERLQDLLHRLDQQEKMQELGVDPFSYRPKQENLEGADFLRTCSSQWPSVSDHSRGLVITAKEGGASIDSSASSSLRCLSSIVDSISSEERKLPCVEEVVEK | soluble
11 | MAHHHHHHMVCRSKRASSFRHRVVHACVTEQRVLPSCRIHVVLRNFSADFSSLSPRCHYTSAGLLLHPSPLPPPSSTSSRLSTSIPPFRFTRAESSAAVFSMSIGTDYLSAMLNYNGCLQERILRRLLIIENETDSLLALRCALVPLQTPTRKRKRHTEPVAAQGTSFNVDVDTTRHRWSTELCEALNDEAAKANCIASLCPPAKERWCAVAAALRRAGHPSFTPYELFTKYKEMHSDSRPFALSEARFVCQYVQEHGGDWQGLCQALRQRLGHVRSPFQVAQQYRQRLRCAFVENRLTSSQLLTLLADLPASPQDRDFAALSVEAQRFTSHKTLQVSPLYLKRELEPLDFAARVPTCHHLYWKLVNLLCNFTLSHPNRLHAFQHRMPFCYQQRSLADLARSLQCEAAELQERVVHALLRLSRPPEALNYEECSKKLFGTVCGAQLIYQISEKLHEKDI | soluble
12 | ERIQQFYFEVKNKDKFEALCRIIDVEEPETTIIFCRTKRGVDELVESMQFRGYNVEGMHGDMSQNQRINTLKKFKENNIDFLVATDVAARGIDVHNVSHVINYDIPQDMESYVHRIGRTGRANAEGIAYSLVTPREYVMIKQIEKFTKSKIRRKEIPTIDDIFETKYNTLTDKITKNIEKDDFKKYIPFVQKLDDEFNLVDVSAALVKMIFDKEMGFDYSDDDKLKSDESVR | not soluble
13 | MGSDKIHHHHHHMRNPDIGIDDLTALFIADTPLIDVRAPVEFTQGSLPGAVNLPILNDEERALVGTTYKQQGSEAAIKLGYEMVSGSVKQNRLQQWLDFIHQHPRAILYCFRGGKRSQITQQWLRDTGIDSPLITGGYKRARQFLISTIDRFSEHRKLLVITGPTGSGKTRLIHDISNSHPVLDIEALARHRGSAFGGMSVPQPSQIDFENHLAVNLLKLEQNNLSEPVIVEDESRHTGKVYLPDSFFHHLRNSEIIWVDEPLATRVDNIFEDYILTTPIGQAQRIRQAIPPLASTVETREILRQQARQLFDKYAGALQAISKKLGGDRFQEVSEDLENARSDFENKNEIQSNKIWIEKLVRYYYDPLYLGSLQRRRVNPCFKGSGQAVMDYLQARK | not soluble
14 | GPGSMENKLLSAPQNTVNPIIEKKRVVSCGMCEVDTTKLLEELRKVKENLSEVIDECIFLENQCEMTEKRLKSELLDRDKRIADISSALMEMVKYTSLLERQVIASAFTTLGSAMKRAPAIDMCRNISLREVASAVRERGESSGSRSSAKRKTRNGALYSEAKMAEEKNAFLLSVDEACALVNGLLREKVNLAAKIGEVAFHVNNAIARGERTSPALPDASSENVDDLHQSILNLTKQLSACGNEGDEEKNLKQVPSQHTAETEEPRQPQGLIAEKEDNTSRPQSPSQTQPPAGLASLGPHILDISRSSLPAVSITTQKGEGECGDITTESLVKKLAAAEEKCMAVEKQSRREREELHAELAYLRNSSREEKEEYNTLIERLTVELEILVAENAVMRKRIKGRKHSRDKIE | not soluble
15 | KRRAALNLRIFATEGAMMLGVTLSRLEGRSFIERSPGRRPFFKPGPLSPRLSRAFVNLSRLQRGGSFADPFCGTGGFAIEACLLGASRIACGDLDWAMVRGGPLNLSRYCPPGIWFYSAWNAAKLPLSSNSVDSIATDPPYGRSTTTGRMGYLSLTRAFLNTAVEVLRSEGWIVYAGPTRMSPETLAEDAGLRVVKVIEMFVHGSLTRSIVVARFG | not soluble
16 | MYKVSIICTNYNKAPWISDALDSFLSQVTDFEVEIIVIDDASTDDSREILKSYQKKSSGKIKLLFNETNIGITKTWIKACLYAKGKYIARCDGDDYWTDSFKLQKQVDVLEASKRSRWCNTDFDFVNSQGDLLYANAFSSGHTPLTDTYEKVLALKGMTMASTWLVDADLMRQVNQKINVDTPDDTFDIQLELFQLTQLTYIKDSTTIYRMTTDSDSRPTDTPKMIYRIQKLLDTQLNYLKKYNQVDTKEVSELLLQQDAKQEIRIHELSCFIQELQQTIVDKTKQQETREVELQNVIEEQKNQLSELRQQYHAIINSRQWKYTSKLIAFIRRKK | not soluble
17 | GFGCPGNQLKCNNHCKSISCRAGYCDAATLWLRCTCTDCNGKK | soluble
18 | MARDRNLFKMLVNRLLDRLARLPVGAELGSEGELAAELQASRTTVRAVLTHLAEAGLLSWEGRRKVVLRAPSPSDRFDEGETRPRQELVEEPFLAWVLQGDLPPGTLLHESDLARRLGVPVATVREFLIRFEPFGLIEKQPNRHWVLKGFTRAFAEEMFAVREMFERHALRGLLAATAPGGPLRADLESLRAEHEALSAGPEEELTAFPALDARFHRLLCRAAHNRFILDFSRTISIIVHFHYRWNKRDELRRNRAALNEHLAIVEAVLAGDAPRAAAALDAHLATAYRTLMTSVTWADA | not soluble
19 | MGSDKIHHHHHHMDSSMPSTPHASAYPIGKPGQVWGEEEKSLWLNKQVIQRSYAEQVLALILDPASISANTADPMETTATQSNAHPEITSALELVHYNTLAYNTLHQGASDYPVYLFKSRHWDETKPNVLITGGVHGYETSGVQGAIRFLRTKAQHYCQHANLIIVPCLSPWGYETINRWNPHAIDPNRSFVHDTAPHDTAMTQAKAQASKVQLSDVQEAHALMAALGELAVNFSLHIDLHETTDSDNAEFRPALAARDGTSYDNWDIPDGFYLVGDTLKPQAEFQKAVINAVNAITHIAPAGEHARLIGVPIAQFGVINYPTKALGLCAGMTDATYCTTTEVYPDSPLVDDENCILAQVAAITGALDYVIKNR | not soluble
